Patent publication US20230192886A1 (published 2023)

T1: PRAME (PRAME-004) peptide on HLA-A*02:01 (human)
T1 peptide: SLLQHLIGL


Molecular target: T1, PRAME (PRAME-004) peptide on HLA-A*02:01
Assay: cytokine release

binding result	Binder
recognises	R17P1D7 (TCR, V domains shown) Valpha: AQTVTQSQPEMSVQEAETVTLSCTYDTSESDYYLFWYKQPPSRQMILVIRQEAYKQQNATENRFSVNFQKAAKSFSLKISDSQLGDAAMYFCAYRWAQGGSEKLVFGKGTKLTVNP Vbeta: EADIYQTPRYLVIGTGKKITLECSQTMGHDKMYWYQQDPGMELHLIHYSYGVNSTEKGDLSSESTVSRIRTEHFPLTLESARPSHTSQYLCATELWSSGGTGELFFGEGSRLTVL
recognises	R16P1E8 (TCR, V domains shown) Valpha: QKEVEQDPGPLSVPEGAIVSLNCTYSNSAFQYFMWYRQYSRKGPELLMYTYSSGNKEDGRFTAQVDKSSKYISLFIRDSQPSDSATYLCAMSEAAGNKLTFGGGTRVLVKP Vbeta: EAGVAQSPRYKIIEKRQSVAFWCNPISGHATLYWYQQILGQGPKLLIQFQNNGVVDDSQLPKDRFSAERLKGVDSTLKIQPAKLEDSAVYLCASSYTNQGEAFFGQGTRLTVV
recognises	R17P1A9 (TCR, V domains shown) Valpha: QKEVEQNSGPLSVPEGAIASLNCTYSDRGSQSFFWYRQYSGKSPELIMSIYSNGDKEDGRFTAQLNKASQYVSLLIRDSQPSDSATYLCAVLNQAGTALIFGKGTTLSVSS Vbeta: DSGVTQTPKHLITATGQRVTLRCSPRSGDLSVYWYQQSLDQGLQFLIQYYNGEERAKGNILERFSAQQFPDLHSELNLSSLELGDSALYFCASSAETGPWLGNEQFFGPGTRLTVL
